What all share (experiment): crystal structure; purified OmpC in detergent (0.6% HESO + 0.1% OPOE, or 1% βOG), crystals grown at 20°C or room temperature; trimer in the crystal
Series [1] deals with OmpC20 (E. coli (clinical isolate)) (UniProt P06996).
Series [2] addresses OmpC26 (E. coli (clinical isolate)) (UniProt P06996).
Series [3] deals with the molecule itself.

We go through three molecules from PMC3203869, “Altered Antibiotic Transport in OmpC Mutants Isolated from a Series of Clinical Strains of Multi-Drug Resistant E. coli” (PLoS ONE, 2011).

For orientation: stoichiometry N means the number of molecules, sites or subunits per partner or assembly.

Turning to “OmpC20 (from UniProt P06996 22-367) (natural protein)”, in series [1], the stoichiometry N stood at 3.

Turning to “OmpC26 (from UniProt P06996 22-367) (natural protein)”, the stoichiometry N in series [2] stood at 3.

B1: OmpCO6 (natural protein)
chain: AEVYNKDGNKLDLYGKVDGLHYFSDDKSVDGDQTYMRLGFKGETQVTDQLTGYGQWEYQIQGNAPESENNSWTRVAFAGLKFQDIGSFDYGRNYGVVYDVTSWTDVLPEFGGDTYGSDNFMQQRGNGFATYRNTDFFGLVDGLNFAVQYQGQNGSVSGENDPDFTGHGITNNGRKALRQNGDGVGGSITYDYEGFGVGAAVSSSKRTWDQNNTGLIGTGDRAETYTGGLKYDANNIYLAAQYTQTYNATRVGSLGWANKAQNFEAVAQYQFDFGLRPSVAYLQSKGKNLGVVAGRNYDDEDILKYVDVGATYYFNKNMSTYVDYKINLLDDNQFTRAAGINTDDIVALGLVYQF
notes: gene amplified by PCR and expressed from pHSG575; Trimer in the crystal; also called OmpC from uropathogenic E. coli O6:H1; source: E. coli strain lacking porins, plasmid pHSG575; purified (detergent extraction, POROS-HQ anion exchange, Superdex 200 gel filtration)
Consider B1, for which the “stoichiometry N” value in series [3] came to 3.
